Measured values: patent US9822148B2, “EGFR-binding peptide” (HOYA CORPORATION, priority 2012, dated 2017)
Where no end group is shown, it is not given here. The star is where a group is joined. FITC = O=C1OC2(c3ccc(O)cc3Oc3cc(O)ccc32)c2ccc(NC(=S)*)cc21; Ahx = NCCCCCC(=O)O

Assays:
rhEGFR = biological target: T1, rhEGFR (Homo sapiens, UniProt P00533); test: Competition test between phage and synthetic peptide on solid phase rhEGFR; assay type: binding; settings: for binding of the I-1010 phage to a rhEGFR (ratio of an input titer/output titer) on adding the peptide: peptide added at each concentration, up to 100 μM
T1 construct: purchased R&D Systems
Protocol: A rhEGFR that is a target protein was added to a 96-well microplate to be 1 μg/well, and stood still at 4° C. overnight to be thus formed into a solid phase. A protein solution was removed, 300 μl of a blocking buffer was added and the mixture was incubated at 37° C. for 1 hour to thus block the wells. After removal of the blocking buffer, the wells were washed three times with 200 μl of 0.5% TBST washing solution, and finally 100 μl of 0.5% TBST was added thereto. […] A reaction only of the I-1010 phage without adding both of the peptides was employed as a control. […] In the reaction, the mixture was gently shaken at room temperature for 1 hour. The reaction solution was removed and the wells were washed with 200 μl of 0.5% TBST ten times. 100 μl of 0.2 M glycine-HCl (pH 2.2) was then added to the wells and stirred by pipetting, thereafter gently shaking at room temperature for 10 minutes. The eluate was collected to a microtube from the wells and added with 15 μl of 1M Tris-HCl (pH 9.1) to be neutralized and a target binding phage solution was thus obtained. The binding ability of the collected phage was examined by a measurement of a titer.

A-431 cells = test: In vitro imaging with FITC labeled peptide, confocal microscope, A-431 cells; assay type: cell-based, human; settings: 100 μM FITC labeled peptide, 37° C., 1 hour
Protocol: A-431 cells were inoculated in a glass bottom dish to be 20×10^4 cells/dish and MCF7 cells were inoculated in a glass bottom dish to be 75×10^4 cells/dish, and cultured at 37° C. in the condition of CO2 for 24 hours. After culturing each kind of the cells for a specified time, EGF was added to have a concentration of 100 ng/mL and the mixture was cultured for 6 days. Thereafter, the culture solution in the dish was removed and washed with 1000 μL of a growth medium at 37° C. ten times. An aminocaproic acid linker was connected to an N terminal of a peptide and the peptide in which FITC was labeled in the opposite side of the connected linker (Pep055-F, Pep032-F ([…] (peptide irrelevant to binding to EGFR): SEQ ID No. 54)) (purity 80.6%, HPLC grade, AnyGen, Korea) was prepared to be 100 μM in a growth medium, and 1 mL of the medium was added and incubated at 37° C. for 1 hour. A staining fluid was removed and washed with 1 mL of a growth medium at 37° C. three times and thereto was finally added 1 mL of the medium. For observation, fluorescent observation was carried out by irradiating an exciting light laser with a wavelength of 488 nm using a confocal microscope (Leica SP2).

[1] = I-1010 phage 1×10^10 PFU, FIG. 6

Substance	binding of the I-1010 phage to a rhEGFR (ratio of an input titer/output titer) on adding the peptide (rhEGFR; [1])	stainability of A-431 cells (A-431 cells)	further results
GAASRTYLHELI (Random peptide) [Pep018, reference compound]	maintained		
Pep055-F: Pep055 with an aminocaproic acid linker at the N terminal, labeled with FITC ({FITC-Ahx}-WHLSDLWQNAWH)		Staining of the cytoplasm of the A-431 cells was observed	
Pep055: synthetic peptide obtained by artificially synthesizing the I-1010 phage displayed peptide (SEQ ID No. 2) (WHLSDLWQNAWH; I-1010)	inhibited concentration-dependently		peptide concentration from which the ratio of an input titer/output titer of the I-1010 phage dropped (rhEGFR; [1]): ≥ 1 µM
Pep056: synthetic peptide (SEQ ID No. 4) of the I-1012 phage displayed peptide (FHDWLPEVSPPD; I-1012)			binding of the I-1012 phage to EGFR on adding the peptide (rhEGFR; FIG. 7): inhibit
Pep057: synthetic peptide (SEQ ID No. 7) of the I-1015 phage displayed peptide (LHQSEWMYVDIH; I-1015)			binding of the I-1015 phage to EGFR on adding the peptide (rhEGFR; FIG. 8): inhibit
YLPLWRLSESHM ({FITC-Ahx}-YLPLWRLSESHM) [Pep032-F, reference compound]		scarcely stained	
